Laboratory results published in article PMC2919099.

Biological target: T1, DRH-3 (Caenorhabditis elegans (N2), UniProt Q93413 1-1119)
T1 sequence: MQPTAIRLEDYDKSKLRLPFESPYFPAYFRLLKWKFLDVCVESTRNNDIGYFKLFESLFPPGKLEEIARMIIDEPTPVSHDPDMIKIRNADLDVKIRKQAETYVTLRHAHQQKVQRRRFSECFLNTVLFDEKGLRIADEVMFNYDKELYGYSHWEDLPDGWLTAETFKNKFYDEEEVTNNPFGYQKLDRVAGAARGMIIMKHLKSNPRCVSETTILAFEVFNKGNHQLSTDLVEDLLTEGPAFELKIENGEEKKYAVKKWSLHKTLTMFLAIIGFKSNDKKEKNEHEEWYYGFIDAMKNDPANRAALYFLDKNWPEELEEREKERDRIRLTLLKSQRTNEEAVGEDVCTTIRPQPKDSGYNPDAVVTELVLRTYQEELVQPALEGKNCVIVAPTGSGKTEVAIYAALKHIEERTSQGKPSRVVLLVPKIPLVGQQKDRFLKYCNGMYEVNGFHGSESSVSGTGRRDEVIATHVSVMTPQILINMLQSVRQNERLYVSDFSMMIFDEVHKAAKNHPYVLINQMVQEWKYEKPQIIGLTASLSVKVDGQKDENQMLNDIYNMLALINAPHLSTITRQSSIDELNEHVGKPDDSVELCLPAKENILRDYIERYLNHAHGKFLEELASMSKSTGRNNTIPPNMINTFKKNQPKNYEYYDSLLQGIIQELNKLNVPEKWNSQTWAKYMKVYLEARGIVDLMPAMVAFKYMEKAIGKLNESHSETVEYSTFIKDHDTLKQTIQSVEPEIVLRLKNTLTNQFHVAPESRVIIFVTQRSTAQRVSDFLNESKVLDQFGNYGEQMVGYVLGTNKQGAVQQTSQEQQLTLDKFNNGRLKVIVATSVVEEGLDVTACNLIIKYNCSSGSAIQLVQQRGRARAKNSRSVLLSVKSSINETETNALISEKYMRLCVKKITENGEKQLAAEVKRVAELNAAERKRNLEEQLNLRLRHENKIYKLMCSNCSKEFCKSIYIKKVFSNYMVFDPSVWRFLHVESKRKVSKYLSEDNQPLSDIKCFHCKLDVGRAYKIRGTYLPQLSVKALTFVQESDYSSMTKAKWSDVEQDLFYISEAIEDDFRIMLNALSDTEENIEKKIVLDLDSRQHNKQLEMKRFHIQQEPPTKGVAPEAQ
Assay: EMSA

B1: ds25 RNA (25 bp) (dsRNA)
RNA 1: GGGUAUAGACUGACUAGGAUCUCCC
RNA 2: GGGAGAUCCUAGUCAGUCUAUACCC
Kd: 11 nM
